Experimental findings from paper doi:10.1101/639948 (bioRxiv, 2019) are described below.

This experiment has as its target native Miro2 (UniProt Q8JZN7 1-620). Put plainly: proximity ligation.

Chain of native Miro2 (Q8JZN7 whole entry): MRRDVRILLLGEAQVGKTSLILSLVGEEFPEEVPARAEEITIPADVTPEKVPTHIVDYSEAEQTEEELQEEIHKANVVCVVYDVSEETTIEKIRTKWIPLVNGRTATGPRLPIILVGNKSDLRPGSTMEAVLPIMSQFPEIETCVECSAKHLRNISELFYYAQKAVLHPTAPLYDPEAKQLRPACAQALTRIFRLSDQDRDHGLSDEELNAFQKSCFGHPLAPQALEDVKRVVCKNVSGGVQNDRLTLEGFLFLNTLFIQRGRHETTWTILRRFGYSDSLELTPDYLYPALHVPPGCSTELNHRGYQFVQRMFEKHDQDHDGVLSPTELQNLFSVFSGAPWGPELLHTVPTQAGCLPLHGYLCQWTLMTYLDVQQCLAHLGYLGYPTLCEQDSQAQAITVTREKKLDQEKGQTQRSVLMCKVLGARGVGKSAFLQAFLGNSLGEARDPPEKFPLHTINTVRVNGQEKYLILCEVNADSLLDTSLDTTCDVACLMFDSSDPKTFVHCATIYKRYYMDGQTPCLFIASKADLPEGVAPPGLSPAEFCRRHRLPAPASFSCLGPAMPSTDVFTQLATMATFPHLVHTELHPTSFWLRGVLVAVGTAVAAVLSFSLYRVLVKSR

B1: Sam50 (natural protein)
chain: MGTVHARSLEPLPSSGTDFGALGEEAEFVEVEPEAKQEILENKDVVVQHVHFDGLGRTKDDIIICEIGEVFKAKNLIEVMRRSHEAREKLLRLGIFRQVDVLIDTCHGEDALPNGLDVTFEVTELRRLTGSYNTMVGNNEGSMVLGLKLPNLLGRAEKVTFQFSYGTKETSYGLSFFKPQPGNFERNFSVNLYKVTGQFPWSSLRETDRGVSAEYSFPLWKTSHTVKWEGVWRELGCLSRTASFAVRKESGHSLKSSLSHAMVIDSRNSSILPRRGALFKVNQELAGYTGGDVSFIKEDFELQLNKPLALDSVFSTSLWGGMLVPIGDKPSSIADRFYLGGPTSVRGFSMHSIGPQSEGDYLGGEAYWAGGLHLYTPLPFRPGQGGFGELFRTHFFLNAGNLCNLNYGEGPKAHIRKLAECIRWSYGAGVVLRLGNIARLELNYCIPMGVQGGDRICDGVQFGAGIRFL
Regarding B1, the “fold enrichment of PLA signal over single antibodies” value worked out at 4 fold.

B2: Mic19/CHCHD3 (natural protein)
chain: MGGTASTRRVTFEADENENITVVKGIRLSENVIDRMKESSPSGSKSQRYSSVYGASVSDEDLKRRVAEELALEQAKKESEHQRRLKQARDLERERAAANEQLTRAVLRERISSEEERMKAKHLARQLEEKDRVMRKQDAFYKEQLARLEERSSEFYKVTTEEYQKAAEEVEAKFKRYEYHPVCADLQTKILQCYRQNTQQTLSCSALASQYMHCVNHAKQSMLEKGG
With B2, the “fold enrichment of PLA signal over single antibodies” value is 4 fold.
